Experimental data published in article PMC2691816 (Nucleic Acids Research, 2009).

Target: purified hXRCC1 protein (human, UniProt P18887 1-633)
Test: far-Western, overlay or dot blot

purified hXRCC1 protein, sequence (P18887 whole entry): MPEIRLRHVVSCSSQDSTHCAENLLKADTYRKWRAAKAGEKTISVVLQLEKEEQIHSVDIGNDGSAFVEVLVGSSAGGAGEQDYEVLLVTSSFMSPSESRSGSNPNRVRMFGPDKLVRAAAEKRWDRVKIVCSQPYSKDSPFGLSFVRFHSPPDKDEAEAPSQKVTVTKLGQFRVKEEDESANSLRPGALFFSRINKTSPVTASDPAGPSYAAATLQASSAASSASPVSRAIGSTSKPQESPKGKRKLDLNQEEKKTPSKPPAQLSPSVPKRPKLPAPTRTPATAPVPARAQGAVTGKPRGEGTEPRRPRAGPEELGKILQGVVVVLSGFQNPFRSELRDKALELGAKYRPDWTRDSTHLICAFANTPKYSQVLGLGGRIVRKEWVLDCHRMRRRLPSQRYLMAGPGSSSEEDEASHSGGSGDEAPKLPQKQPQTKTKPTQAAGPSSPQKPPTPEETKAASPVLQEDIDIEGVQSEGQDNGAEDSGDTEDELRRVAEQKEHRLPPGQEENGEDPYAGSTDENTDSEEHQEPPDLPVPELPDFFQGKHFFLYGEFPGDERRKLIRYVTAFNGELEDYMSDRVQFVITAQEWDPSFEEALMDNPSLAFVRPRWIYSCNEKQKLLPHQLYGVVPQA

binding result: binds
B1: His-tagged p58 N-terminal domain (amino acids 1–266) (domain or fragment, human, UniProt P49643 1-266, looked up)
chain: MEFSGRKWRKLRLAGDQRNASYPHCLQFYLQPPSENISLIEFENLAIDRVKLLKSVENLGVSYVKGTEQYQSKLESELRKLKFSYRENLEDEYEPRRRDHISHFILRLAYCQSEELRRWFIQQEMDLLRFRFSILPKDKIQDFLKDSQLQFEAISDEEKTLREQEIVASSPSLSGLKLGFESIYKIPFADALDLFRGRKVYLEDGFAYVPLKDIVAIILNEFRAKLSKALALTARSLPAVQSDERLQPLLNHLSHSYTGQDYSTQG
